According to the Human Domainome abundance scans (Beltran et al. 2025):

B1: Tumor protein 63, residues 545 to 610; numbered along this chain, Q9H3D4 (parent)
chain: TDCSIVSFLARLGCSSCLDYFTTQGLTTIYQIEHYSMDDLASLKIPEQFRHAIWKGILDHRQLHEF
B2: Myocardin-related transcription factor A, residues 341 to 383; numbered along this chain, Q969V6 (parent)
chain: GALPANLDDMKVAELKQELKLRSLPVSGTKTELIERLRAYQDQ

Variants of: B1
Experiment: abundance fitness (aPCA) (normalised: wild type 0, dead -1); higher = more abundant; growth selection in yeast, the domain comes from the species named
Conditions: Homo sapiens

Abundance fitness of substitutions, site by site:
H64: R -0.019; N -0.007; F -0.064; S 0.016; K -0.018; W -0.075; Q 0.029; A -0.002; V -0.019; E 0.034; P -0.02; I -0.061; T 0.011; G -0.035; D -0.028
L63: N -0.04; K -0.004; S 0.005; Y -0.029; M 0.025; G -0.016; T -0.006; V -0.043; I -0.034; Q -0.016; R -0.045; W -0.054; P -0.008
F66: E -0.678; P 0.086; Y 0.044; I -0.011; H 0.027; M 0.028; L -0.022; D -0.119; S -0.019; C 0.033; R -0.013; A 0.05; G -0.214; V 0.071
E65: Q 0.113; R -0.065; H -0.072; P -0.082; I -0.099; D 0.081; K 0.002; M -0.089; N -0.027; T -0.049; C -0.023; Y -0.184; A 0.002; L -0.08; V -0.093

Variants of: B2
Experiment: as above
Conditions: Homo sapiens

Abundance fitness: each site, then its substitutions
L7: H -0.87; C -0.157; D -1.17; S -0.47; E -0.924; W -0.429; T -0.136; Q -0.763; R -0.614; G -0.305; V -0.199; A -0.097
N6: P -1.5; A -0.229; L -0.124; M 0.135; Q -0.212; V -0.127; H -0.661; E -0.007; K 0.157; D -0.189; W -0.76; G 0.044; R -0.048; F -0.431
P4: M 0.196; W 0.057; S 0.245; G 0.217; F -0.263; V 0.29; Q 0.293; D 0.213; I 0.301; T 0.243; C 0.211; R 0.219; L 0.322; K 0.17; E 0.349; A 0.079; H 0.093; Y 0.29
A2: L 0.208; W -0.145; F 0.024; T 0.161; G 0.035; R 0.034; K 0.588; M 0.433; D 0.26; S 0.209; Q 0.34; C -0.077; P -0.041; E 0.136
L15: R -0.831; T -0.403; I 0.119; E -0.604; M -0.481; H -0.621; V -0.092; F -0.466; D -0.369; Q -0.662; W -1.38; N -0.628; K -0.508; A -0.336; C -0.999; G -0.558
L19: A -0.048; W -0.911; S -0.237; M 0.178; H -0.852; Q -0.408; T -0.391; D -0.621; R -0.812; V -0.286; C -0.083; E -0.55; G -0.536; K -0.8
M10: W -0.41; S -0.256; Y -0.068; N -0.425; Q -0.434; R -0.537; K -0.151; V -0.872; L -0.222; E -0.979; C -0.441; D -0.894; G -0.839; A -0.104; P -0.531; T -0.568; I -0.302
K20: C 0.309; D -0.061; N -0.137; R 0.011; P -0.453; F -0.153; M 0.044; A -0.003; H -0.342; L 0.002; E 0.145
E18: I -0.906; L -0.35; T -0.5; G -0.701; R -0.593; A -0.007; H -0.432; M -0.274; Q -0.292; C -0.2; V -0.15; S -0.28; W -0.606; P -1.33; K -0.365
V12: Q -0.552; C -0.212; D -0.363; I -0.177; A -0.029; N -0.647; F -0.037; E 0.098; W -0.374; L 0.164; G -0.218; R -0.177; M 0.199; Y -0.585; S -0.336
G1: A -0.918; R -0.165; N -0.205; V -0.384; C -0.605; S -0.438; E -0.303; Q -0.306; D -0.587
K16: S 0.006; R -0.159; Q 0.186; D -0.714; P -0.587; T -0.036; Y -0.131; H 0.123; N -0.384; M 0.169; V -0.143; E -0.052; L -0.408
D8: Q 0.146; A 0.19; V 0.048; M -0.125; K -0.018; N -0.009; G 0.183; E 0.261; S -0.124; C 0.176; R 0.046; W 0.185; T -0.129
E14: L -0.355; K -0.215; M 0.022; F -0.3; R -0.169; D -0.266; S -0.056; Q -0.063; C -0.311; V -0.127; P -0.656; W -0.314; Y -0.147; T -0.134; G -0.165; A -0.079; H 0.136
Q17: E 0.048; T -0.134; P -0.794; W -0.595; D -0.247; G -0.153; L -0.306; K -0.283; C -0.593; Y -0.263; F -0.234; R -0.049; V -0.207; S -0.036; A 0.015; M 0.079
D9: N 0; Q 0.085; C 0.014; A 0.203; S 0.159; E 0.273; G 0.13; M 0.019; T 0.243; V 0.153; L -0.026; R 0.135; K 0.404; P -0.416; W -0.139
A5: L 0.045; P -0.845; K 0.109; F -0.012; N 0.215; G 0.081; I 0.249; Q -0.025; E 0.216; S -0.107; M 0.292; W -0.655; T 0.185; R 0.064
K11: E 0.047; P -0.166; C -0.126; Y -0.799; W -0.635; F -0.502; A 0.132; L -0.197; T -0.161; H -0.154; G -0.054; S -0.029; Q -0.161; D -0.045; M -0.275; V -0.055; R -0.079
L3: C 0.016; Y 0.502; K -0.171; R -0.021; H 0.426; E -0.019; N 0.128; G 0.028; S -0.031; D 0.512; M -0.022; A -0.431; T -0.598; W -0.122; V 0.073; I 0.144; F 0.243
